± gives the standard deviation of the averaged measurements.

For this data set, the system named is ATP. The data set can be described thus: switch fluorescence ratio, 500 uM ATP over buffer (Cy3 cluster intensity, sum of 5 cycles each) (fold (ratio)); higher = stronger signal-on switching upon ATP binding; sequences stand for … in TCGTCGGCAGCGTCAGATGTGTATAAGAGACAGTTTTTTTTTTTTTTTTTTTTTTTTT…TC. Particulars: aptamer strand: ATP DNA aptamer (quencher-CACCTGGGGGAGTATTGCGGAGGAAGG + anchor), 100 nM annealed; ATP concentration: 500 uM. Summed up:
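Exposure to 500 uM ATP lasted 15 min at 22 °C before imaging, and a selection-buffer image was taken beforehand, for Cy3-labelled switching-strand clusters on a modified Illumina MiSeq flow-cell annealed to 100 nM quencher-labelled ATP aptamer. Five buffer/ATP cycles were run with NaOH stripping and re-annealing between them. The fluorescence ratio per cluster is summed target-cycle over summed buffer-cycle Cy3 intensity, averaged per switch-domain sequence. Clusters outside 100-1000 RFU were excluded.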
For GGTAGTGGGG, the switch fluorescence ratio turned out to be 0.987 ± 0.021.
As for TAAATTGGCG, the switch fluorescence ratio is 0.987 ± 0.037.
With GGGAATTACT the figure was 1.87 ± 1.1; with AGTTCACTGG, 0.979 ± 0.02.
With TGCCTGGGGA the figure was 1.2 ± 0.25; with ATCTCAATTT, 0.967 ± 0.027; with GTTCAAAGGT, 0.96 ± 0.032.
With CGATAGATGT the figure was 1 ± 0.024; with CTTAGGGTTG, 0.999 ± 0.013; with TGGCTTTTTG, 0.9898 ± 0.0035.
For CGTATTTAGT, the switch fluorescence ratio came to 0.98 ± 0.035.
As for CCATATTTGG, the switch fluorescence ratio is 1.033 ± 0.0063.
Then GTTAAATTTT, with 0.986 ± 0.024; and GTTGGGCACT, with 0.992 ± 0.033.
For the sequence GTTTGGTCGG, the switch fluorescence ratio was 1.04 ± 0.035.
As to CAGGGGTAAA, the switch fluorescence ratio is 1.01 ± 0.019.
Then TAACGTTTTG, with 0.989 ± 0.025.
Then GGGGCAAAAA, with 1.08 ± 0.12; and ACAGACTCGG, with 1.039 ± 0.0036; and GACAGGGATG, with 1.02 ± 0.039.
For the sequence ATAACGCGGT, the switch fluorescence ratio worked out at 0.9967 ± 0.0047.
Turning to TCCTTCGGTT, the switch fluorescence ratio came to 1.393 ± 0.0023.
Then AATAAGAGAG, with 1.001 ± 0.0078.
As to ATTTTTCTTC, the switch fluorescence ratio came out at 1.035 ± 0.0046.
As to TTCTCGTCTT, the switch fluorescence ratio was determined as 1.04 ± 0.036.
Then ACGATTGGTT, with 1.005 ± 0.01; and TCTGTAAGGC, with 1.39 ± 0.066; and TTGTTATGTG, with 0.955 ± 0.024.
For the sequence TTTTCTATAT, the switch fluorescence ratio worked out at 1.01 ± 0.065.
With TAGCTTGGGA the figure was 1.01 ± 0.026.
Then TAATTTAGAA, with 0.975 ± 0.021.
For the sequence GAGAACATGG, the switch fluorescence ratio came to 1.03 ± 0.035.
Then GTTTTATTAG, with 0.951 ± 0.032; and TGGTTGGT, with 0.9755 ± 0.0095.
On to GGGCCAAGGA, for which the switch fluorescence ratio turned out to be 1.01 ± 0.02.
With GTCGTTAGGG the figure was 0.963 ± 0.051; with TTCGTATTTC, 1.06 ± 0.083; with AGTATGTATG, 1.02 ± 0.024.
As for CGTAGGATTT, the switch fluorescence ratio came to 0.9554 ± 0.0048.
TTTTTGTAAA: the switch fluorescence ratio came to 0.9936 ± 0.003.
As for TTGTACATCC, the switch fluorescence ratio was 1.03 ± 0.013.
With GAGGCTGTTT the figure was 1.01 ± 0.035; with CGCGGTACGG, 1.47 ± 0.39; with TAGAAAATGG, 1 ± 0.029.
As to GGATGGGATA, the switch fluorescence ratio turned out to be 1 ± 0.016.
Then TTTACTTAGG, with 1.04 ± 0.023; and AGCAACATTA, with 1.06 ± 0.025; and GCTTCTGCCT, with 1 ± 0.013.
With ACCGGATATA the figure was 1.006 ± 0.0081; with GGCTGCAATG, 1.39 ± 0.069.
Then TGAGTCTAGG, with 0.9979 ± 0.0026; and GAATTTTCG, with 1.009 ± 0.0097.
With TAAATCACGG, the switch fluorescence ratio is 1.02 ± 0.038.
With GAGATATTGT the figure was 1.03 ± 0.038; with TGTTTTGGAG, 1 ± 0.032.
With ATTTATGTTG the figure was 1.01 ± 0.031; with TCGTTGGGGG, 0.995 ± 0.013; with TCGCGAGAGC, 1.004 ± 0.0057.
Regarding TTTTTTCAGC, the switch fluorescence ratio was 1 ± 0.048.
With CGTACGCCGG the figure was 0.993 ± 0.021; with GGATCTTGTG, 1.01 ± 0.021.
Then AATTTATTTT, with 0.991 ± 0.026; and TGATGGATTG, with 0.99 ± 0.028.
In the case of GATCGGTACG, the switch fluorescence ratio turned out to be 1 ± 0.011.
As to CTTATACTGG, the switch fluorescence ratio turned out to be 1.02 ± 0.011.
For TAGTTTGGCT, the switch fluorescence ratio is 1.02 ± 0.047.
With ATGATTAACT the figure was 0.986 ± 0.036.

The values are drawn from the supplement of paper PMC10126150.
